The labels stand for the following.
B1: Nephrin (Nphs1) (natural protein, human, UniProt O60500 23-1241, looked up)
chain: QLAIPASVPRGFWALPENLTVVEGASVELRCGVSTPGSAVQWAKDGLLLGPDPRIPGFPRYRLEGDPARGEFHLHIEACDLSDDAEYECQVGRSEMGPELVSPRVILSILVPPKLLLLTPEAGTMVTWVAGQEYVVNCVSGDAKPAPDITILLSGQTISDISANVNEGSQQKLFTVEATARVTPRSSDNRQLLVCEASSPALEAPIKASFTVNVLFPPGPPVIEWPGLDEGHVRAGQSLELPCVARGGNPLATLQWLKNGQPVSTAWGTEHTQAVARSVLVMTVRPEDHGAQLSCEAHNSVSAGTQEHGITLQVTFPPSAIIILGSASQTENKNVTLSCVSKSSRPRVLLRWWLGWRQLLPMEETVMDGLHGGHISMSNLTFLARREDNGLTLTCEAFSEAFTKETFKKSLILNVKYPAQKLWIEGPPEGQKLRAGTRVRLVCLAIGGNPEPSLMWYKDSRTVTESRLPQESRRVHLGSVEKSGSTFSRELVLVTGPSDNQAKFTCKAGQLSASTQLAVQFPPTNVTILANASALRPGDALNLTCVSVSSNPPVNLSWDKEGERLEGVAAPPRRAPFKGSAAARSVLLQVSSRDHGQRVTCRAHSAELRETVSSFYRLNVLYRPEFLGEQVLVVTAVEQGEALLPVSVSANPAPEAFNWTFRGYRLSPAGGPRHRILSSGALHLWNVTRADDGLYQLHCQNSEGTAEARLRLDVHYAPTIRALQDPTEVNVGGSVDIVCTVDANPILPGMFNWERLGEDEEDQSLDDMEKISRGPTGRLRIHHAKLAQAGAYQCIVDNGVAPPARRLLRLVVRFAPQVEHPTPLTKVAAAGDSTSSATLHCRARGVPNIVFTWTKNGVPLDLQDPRYTEHTYHQGGVHSSLLTIANVSAAQDYALFTCTATNALGSDQTNIQLVSISRPDPPSGLKVVSLTPHSVGLEWKPGFDGGLPQRFCIRYEALGTPGFHYVDVVPPQATTFTLTGLQPSTRYRVWLLASNALGDSGLADKGTQLPITTPGLHQPSGEPEDQLPTEPPSGPSGLPLLPVLFALGGLLLLSNASCVGGVLWQRRLRRLAEGISEKTEAGSEEDRVRNEYEESQWTGERDTQSSTVSTTEAEPYYRSLRDFSPQLPPTQEEVSYSRGFTGEDEDMAFPGHLYDEVERTYPPSGAWGPLYDEVQMGPWDLHWPEDTYQDPRGIYDQVAGDLDTLEPDSLPFELRGHLV
notes: Nephrin, human NPHS1 cDNA cloned into a modified pcDNA6 vector behind the CD5 signal peptide and the V5 tag (sV5-tag); A CD5 signal peptide precedes the V5 tag in the construct; also called sV5-Nphs1; sV5-Nephrin; source: HEK 293T, transfected (calcium phosphate), in lysate; not shown: V5, N-terminal, kept
B2: Neph3 (filtrin) 353M variant (natural protein, human, UniProt Q6UWL6 21-708, looked up)
chain: GPSPHFLQQPEDLVVLLGEEARLPCALGAYWGLVQWTKSGLALGGQRDLPGWSRYWISGNAANGQHDLHIRPVELEDEASYECQATQAGLRSRPAQLHVLVPPEAPQVLGGPSVSLVAGVPANLTCRSRGDARPTPELLWFRDGVLLDGATFHQTLLKEGTPGSVESTLTLTPFSHDDGATFVCRARSQALPTGRDTAITLSLQYPPEVTLSASPHTVQEGEKVIFLCQATAQPPVTGYRWAKGGSPVLGARGPRLEVVADASFLTEPVSCEVSNAVGSANRSTALDVLFGPILQAKPEPVSVDVGEDASFSCAWRGNPLPRVTWTRRGGAQMLGSGATLRLPSVGPEDAGDYVCRAEAGLSGLRGGAAEARLTVNAPPVVTALHSAPAFLRGPARLQCLVFASPAPDAVVWSWDEGFLEAGSQGRFLVETFPAPESRGGLGPGLISVLHISGTQESDFSRSFNCSARNRLGEGGAQASLGRRDLLPTVRIVAGVAAATTTLLMVITGVALCCWRHSKASASFSEQKNLMRIPGSSDGSSSRGPEEEETGSREDRGPIVHTDHSDLVLEEEGTLETKDPTNGYYKVRGVSVSLSLGEAPGGGLFLPPPSPLGPPGTPTFYDFNPHLGMVPPCRLYRARAGYLTTPHPRAFTSYIKPTSFGPPDLAPGTPPFPYAAFPTPSHPRLQTHV
notes: Neph3 (filtrin), human NEPH3 cDNA with the natural variant V353M (GTG to ATG by site-directed mutagenesis); Each copy carries ONE tag: FLAG on the bait copy, HA on the prey copy of the homodimerisation co-IP; Two FLAG constructs are described (Origene pCMV6 with FLAG-tag; modified pcDNA6 with CD5 signal peptide fused to the FLAG-tag); also called NEPH3-V353M; NEPH3-p.V353M; source: HEK 293T, …
B3: Neph3 (filtrin) 353V (natural protein, human, UniProt Q6UWL6 21-708, looked up)
chain: B2 chain with M333V
notes: Neph3 (filtrin), human NEPH3 cDNA, wild-type allele with valine at position 353; Each copy carries ONE tag: FLAG on the bait copy, HA on the prey copy of the homodimerisation co-IP; Two FLAG constructs are described (Origene pCMV6 with FLAG-tag; modified pcDNA6 coding for the CD5 signal peptide fused to the FLAG-tag); In the pcDNA6 constructs a CD5 signal peptide precedes the tag; also called …

What all share (assay): co-IP; HEK 293T cells co-transfected, lysed in IP-buffer (1% Triton X-100, 20 mM Tris pH 7.5, 25 mM NaCl); FLAG-Neph3 precipitated with anti-FLAG, blot with anti-HA (HA-Neph3) or anti-V5 (sV5-nephrin); densitometry (ImageJ) normalised to input, wild type set at 1.0, n = 3
In data set [1] the target is B3. The settings on record: partners not purified.
Data set [2] deals with B2. The settings on record: partners not purified.
Data set [3] deals with the molecule itself.

Where a chain is given by its changes, count along the chain named. In names and notes the source's numbering stands.

Consider B1, for which the “mean normalized densitometry value (co-IP)” value in data set [1] is 1 relative to wild type (1.0). The “mean densitometry value (co-IP)” value in data set [2] was 1.18 relative to wild type (1.0).
Turning to B2, the “mean normalized densitometry value (co-IP)” value is 4.33 relative to wild type (1.0) in data set [1] and 23.8 relative to wild type (1.0) in data set [3].
In the case of B3, the “mean normalized densitometry value (co-IP)” value in data set [3] was 1 relative to wild type (1.0).

The values are drawn from publication PMC5363870, “A functional variant in NEPH3 gene confers high risk of renal failure in primary hematuric glomerulopathies. Evidence for predisposition to microalbuminuria in the general population” (PLoS ONE, 2017).
